Numbering of substitutions follows the chain as printed.

Assay in all cases: time-resolved fluorescence immunoassay (TR-FIA); plate coated with monoclonal anti-PBX1; PBX1 pre-incubated with PREP1 or MEIS1 for 1 h on ice, 10 µg/mL in 1% BSA PBS, 1 h at room temperature on the plate; detected with anti-PREP1 or biotinylated anti-MEIS1/2 and Eu^3+ conjugates; normalised to the wild-type protein taken as 1
Holding throughout (settings): both partners purified

Test [1] addresses T1, PBX1 I211A (human, UniProt P40424 1-430, I211A).
T1 construct: PBX1, residues 1-430; source: E. coli, purified
T1 sequence (looked up): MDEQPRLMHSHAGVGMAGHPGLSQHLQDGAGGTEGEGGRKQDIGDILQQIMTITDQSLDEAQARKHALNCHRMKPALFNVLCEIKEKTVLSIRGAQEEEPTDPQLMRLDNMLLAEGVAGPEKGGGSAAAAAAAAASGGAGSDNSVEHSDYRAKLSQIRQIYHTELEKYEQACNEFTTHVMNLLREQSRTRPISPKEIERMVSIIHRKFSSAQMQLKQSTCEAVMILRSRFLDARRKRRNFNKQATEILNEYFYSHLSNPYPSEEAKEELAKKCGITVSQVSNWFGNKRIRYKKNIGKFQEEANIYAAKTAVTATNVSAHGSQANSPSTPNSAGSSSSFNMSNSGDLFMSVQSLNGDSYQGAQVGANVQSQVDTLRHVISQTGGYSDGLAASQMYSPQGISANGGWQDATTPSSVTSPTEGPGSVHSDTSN

The target of test [2] is T2, PBX1 Δ77-84 (human, UniProt P40424 1-430, Δ77−84).
T2 construct: PBX1, residues 1-430, with an internal deletion; source: E. coli, purified
T2 sequence (looked up): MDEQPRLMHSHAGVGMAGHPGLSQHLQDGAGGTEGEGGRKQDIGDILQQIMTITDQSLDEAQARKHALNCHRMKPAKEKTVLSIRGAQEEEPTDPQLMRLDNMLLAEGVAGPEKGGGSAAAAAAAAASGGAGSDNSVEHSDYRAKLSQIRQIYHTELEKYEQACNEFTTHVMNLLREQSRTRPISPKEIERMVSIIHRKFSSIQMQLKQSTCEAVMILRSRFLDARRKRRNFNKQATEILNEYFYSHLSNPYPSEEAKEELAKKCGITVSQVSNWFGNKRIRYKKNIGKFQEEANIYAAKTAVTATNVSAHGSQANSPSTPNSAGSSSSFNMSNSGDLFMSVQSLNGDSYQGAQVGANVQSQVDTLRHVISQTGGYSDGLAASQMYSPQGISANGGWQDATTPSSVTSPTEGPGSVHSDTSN

The target of test [3] is T3, PREP1 L129A (UniProt P55347 1-436, L129A).
T3 construct: PREP1 (PKNOX1), residues 1-436
T3 sequence (looked up): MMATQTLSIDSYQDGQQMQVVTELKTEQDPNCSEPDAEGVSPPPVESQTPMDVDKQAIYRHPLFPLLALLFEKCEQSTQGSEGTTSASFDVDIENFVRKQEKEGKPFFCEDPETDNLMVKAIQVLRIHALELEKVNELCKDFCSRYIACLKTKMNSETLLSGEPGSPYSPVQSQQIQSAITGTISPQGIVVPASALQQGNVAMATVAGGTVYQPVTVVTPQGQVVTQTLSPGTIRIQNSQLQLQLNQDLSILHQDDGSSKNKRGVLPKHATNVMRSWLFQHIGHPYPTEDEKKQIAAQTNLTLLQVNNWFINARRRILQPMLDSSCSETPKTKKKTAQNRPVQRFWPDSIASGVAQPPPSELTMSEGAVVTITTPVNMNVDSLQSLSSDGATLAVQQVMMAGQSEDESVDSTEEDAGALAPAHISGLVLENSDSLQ

The target of test [4] is T4, PREP1 L67A (UniProt P55347 1-436, L67A).
T4 construct: PREP1 (PKNOX1), residues 1-436
T4 sequence (looked up): T3 sequence (looked up) with L67A, A129L

B1: PREP1_(1-436), wild-type recombinant (TR-FIA) (natural protein, UniProt P55347 1-436, looked up)
chain: T3 sequence (looked up) with A129L
notes: also called wild-type PREP1; PKNOX1; source: E. coli, purified
Consider B1, for which the “binding relative to wild type” value in test [1] was roughly 65%; in test [2] it was 35%.

B2: PBX1_(1-430), wild-type recombinant (natural protein, human, UniProt P40424 1-430, looked up)
chain: T1 sequence (looked up) with A211I
notes: also called wild-type PBX1; purified recombinant human PBX1; source: E. coli, purified
Turning to B2, the binding result in test [3] and in test [4] was “binds” each time.

Values taken from publication PMC7545097, “Mapping the native interaction surfaces of PREP1 with PBX1 by cross-linking mass-spectrometry and mutagenesis” (Scientific Reports, 2020).
